Measurements as given in paper PMC5153249.

Key:
Assay in all cases: EMSA
[1] = test system: eIF3 (a Box37) (Saccharomyces cerevisiae); settings: mean of 2, Met-charged tRNAi, 30 mM HEPES-KOH pH 7.4, 100 mM KOAc, 3 mM Mg(OAc)2, 2 mM DTT, 1 mM GDPNP, 26 C, 2 h, native 4% THEM gel
[2] = test system: eIF3 (a Box6) (Saccharomyces cerevisiae); settings: mean of 2, Met-charged tRNAi, 30 mM HEPES-KOH pH 7.4, 100 mM KOAc, 3 mM Mg(OAc)2, 2 mM DTT, 1 mM GDPNP, 26 C, 2 h, native 4% THEM gel
[3] = test system: eIF3 (a delta8) (Saccharomyces cerevisiae); settings: mean of 2, Met-charged tRNAi, 30 mM HEPES-KOH pH 7.4, 100 mM KOAc, 3 mM Mg(OAc)2, 2 mM DTT, 1 mM GDPNP, 26 C, 2 h, native 4% THEM gel
[4] = test system: eIF3 (c Box12-SPW) (Saccharomyces cerevisiae); settings: mean of 2; Met-charged tRNAi; 30 mM HEPES-KOH pH 7.4, 100 mM KOAc, 3 mM Mg(OAc)2, 2 mM DTT, 1 mM GDPNP, 26 C, 2 h; native 4% THEM gel
[5] = test system: eIF3 (c GAP85) (Saccharomyces cerevisiae); settings: mean of 2, Met-charged tRNAi, 30 mM HEPES-KOH pH 7.4, 100 mM KOAc, 3 mM Mg(OAc)2, 2 mM DTT, 1 mM GDPNP, 26 C, 2 h, native 4% THEM gel
[6] = test system: eIF3 (c delta60) (Saccharomyces cerevisiae); settings: mean of 2, Met-charged tRNAi, 30 mM HEPES-KOH pH 7.4, 100 mM KOAc, 3 mM Mg(OAc)2, 2 mM DTT, 1 mM GDPNP, 26 C, 2 h, native 4% THEM gel
[7] = test system: eIF3 (g KLF) (Saccharomyces cerevisiae); settings: mean of 2, Met-charged tRNAi, 30 mM HEPES-KOH pH 7.4, 100 mM KOAc, 3 mM Mg(OAc)2, 2 mM DTT, 1 mM GDPNP, 26 C, 2 h, native 4% THEM gel
[8] = test system: eIF3 (i Q258R) (Saccharomyces cerevisiae); settings: mean of 2, Met-charged tRNAi, 30 mM HEPES-KOH pH 7.4, 100 mM KOAc, 3 mM Mg(OAc)2, 2 mM DTT, 1 mM GDPNP, 26 C, 2 h, native 4% THEM gel
[9] = test system: eIF3 WT (a/b/c/i/g) (Saccharomyces cerevisiae); settings: Met-charged tRNAi, 30 mM HEPES-KOH pH 7.4, 100 mM KOAc, 3 mM Mg(OAc)2, 2 mM DTT, 1 mM GDPNP, 26 C, 2 h, native 4% THEM gel
[10] = test system: eIF3 a/b/c sub-complex (Saccharomyces cerevisiae); settings: mean of 2, Met-charged tRNAi, 30 mM HEPES-KOH pH 7.4, 100 mM KOAc, 3 mM Mg(OAc)2, 2 mM DTT, 1 mM GDPNP, 26 C, 2 h, native 4% THEM gel
[11] = test system: eIF3 (a H725P) (Saccharomyces cerevisiae); settings: mean of 2; Met-charged tRNAi; uncapped mRNA; 30 mM HEPES-KOH pH 7.4, 100 mM KOAc, 3 mM Mg(OAc)2, 2 mM DTT, 1 mM GDPNP, 26 C, 2 h; native 4% THEM gel
[12] = test system: eIF3 (a R731I) (Saccharomyces cerevisiae); settings: mean of 2; Met-charged tRNAi; uncapped mRNA; 30 mM HEPES-KOH pH 7.4, 100 mM KOAc, 3 mM Mg(OAc)2, 2 mM DTT, 1 mM GDPNP, 26 C, 2 h; native 4% THEM gel

## 43S PIC (40S rRNA + Met-tRNAi)
[1]
  Kd: 59.5 nM
[2]
  Kd: 35 nM
[3]
  Kd: 87 nM
[4]
  Kd: 66.5 nM
[5]; upper limit
  Kd: 26.5 nM
[6]; upper limit
  Kd: 24 nM
[7]; upper limit
  Kd: 21.5 nM
[8]; upper limit
  Kd: 30 nM
[9]; mean of 43, 24, text <=38 nM, upper limit
  Kd: 33.5 nM
[10]
  Kd: 92.5 nM

## 48S PIC (40S rRNA + Met-tRNAi + AUG model mRNA)
[1]; uncapped mRNA
  Kd: 83.5 nM
[2]; uncapped mRNA
  Kd: 38 nM
[11]
  Kd: 62.5 nM
[12]
  Kd: 50 nM
[3]; uncapped mRNA
  Kd: 88.5 nM
[5]; uncapped mRNA
  Kd: 38 nM
[6]; uncapped mRNA
  Kd: 46.5 nM
[7]; uncapped mRNA
  Kd: 52.5 nM
[8]; uncapped mRNA
  Kd: 48.5 nM
[9]; mean of 2, uncapped mRNA
  Kd: 37.5 nM
[10]; uncapped mRNA
  Kd: 108 nM
